The text below walks through data of US20250084126A1, “PEPTIDE AND COMPOSITION” (OSAKA UNIVERSITY, priority 2021, published 2025).

The test system of one assay is exposed pulp. As to conditions: rat in vivo, reported in Non Patent Literature 1; cited from earlier work.
The subject of another assay is pulp cells. As to conditions: reported in Non Patent Literature 1; cited from earlier work.
The subject of assay [1] is exposed pulp of rat maxillary first molars. In words: Direct pulp capping experiment using S100-A7 and S100-A7 reacted with MMP20. As to conditions: rat molar, gelatin sponge with 20 μl of 1 μg/ml in PBS, 4 weeks after pulp capping, n=3. In kind it is in vivo. How it is done: Eight-week-old male Wistar rats were injected intraperitoneally with pentobarbital sodium (SomnoPentyl (Trade Mark), Kyoritsu Seiyaku Corporation, Tokyo) (30 mg/kg) as general anesthesia, and carprofen (Rimadyl®, Pfizer, USA) (3 mg/kg) was administered for pain relief. The tooth to be treated was isolated by rubber dam dry field technique, and a surface and surrounding tissue of the tooth were cleaned with an alcohol-soaked cotton ball, and then a cavity was formed using the following method based on the report by Komichi et al. [Non Patent Literature 1]. […] Maxillas, including the test teeth, were then resected and soft tissues were removed, and evaluated by the following methods. […]
Image analysis using the micro-CT (R-mCT2™M, Rigaku Corporation, Tokyo) was performed for quantitative evaluation of the formed tertiary dentin in the samples after the direct pulp capping. […] A CT value equivalent to that of the primary dentin was set as a threshold for extracting the tertiary dentin, and the area of the newly formed tertiary dentin was calculated from a binarized image. The area of the newly formed tertiary dentin was measured in each section, and the volume of the newly formed tertiary dentin was calculated by summing all of the measurements. […]

B1: S100-A7: Protein S100-A7 (PROSPEC, Israel), human-derived Protein S100 (protein, UniProt P31151 2-101, looked up)
Protein S100-A7: SNTQAERSIIGMIDMFHKYTRRDDKIEKPSLLTMMKENFPNFLSACDKKGTNYLADVFEKKDKNEDKKIDFSEFLSLLGDIATDYHKQSHGAAPCSGGSQ
Consider B1, for which the “tertiary dentin induction in the direct pulp capping experiment” value in the assay with exposed pulp is “completely covers the surface of the exposed pulp”. For the same molecule, the “effect on pulp cells in vitro” value in the assay with pulp cells was “activates proliferation, differentiation, and mineralization abilities”. For the same molecule, the “tertiary dentin formation (micro-CT analysis)” value in assay [1] is given as “completely covering the exposed region of pulp”.
